Where a chain is given by its changes, count along the chain named.
Target: the molecule itself
Experiment: crystal structure

B1: MS2 coat protein Asn87Ser mutant (natural protein, bacteriophage MS2)
chain: ASNFTQFVLVDNGGTGDVTVAPSNFANGVAEWISSNSRSQAYKVTCSVRQSSAQNRKYTIKVEVPKVATQTVGGVELPVAAWRSYLSMELTIPIFATNSDCELIVKAMQGLLKDGNPIPSAIAANSGIY
Question: Does B1 bind?
Answer: binds

B2: MS2 coat protein Asn87Ser, Glu89Lys double mutant (natural protein, bacteriophage MS2)
chain: B1 chain with E89K
Question: Does B2 bind?
Answer: binds

Reference: paper PMC7612262 (Structure (London, England : 1993), 2006)
